Experimental data from article PMC4868954.
pKd: −log10 of the molar value.

The substances below were run against complement component C3b (human) (UniProt P01024) (assay: SPR).

Substance	pKd
complement receptor 1 CR1 CCP15–17 (residues 942–1,136) (from UniProt P17927 942-1136) (domain or fragment)	5.72
decay-accelerating factor DAF CCP1–4 (domain or fragment)	5.21
factor H FH CCP1–4 (domain or fragment)	5.14
membrane-cofactor protein MCP CCP1–4 (residues 35–285), from E. coli (from UniProt P15529 35-285) (domain or fragment)	6.46
smallpox inhibitor of complement enzymes, SPICE CCP1–4 (residues 19–263) (natural protein)	5.89
